Among the data in patent US20250099635A1, “IIMMUNOCONJUGATES COMPRISING KALLIKREIN RELATED PEPTIDASE 2 ANTIGEN BINDING DOMAINS AND THEIR USES” (Janssen Biotech, Inc., priority 2022, published 2025) are Kd values, retold here.

In this assay the target is soluble human kallikrein related peptidase 2 (hK2) protein (human) (UniProt P20151). The assay is described as follows: SPR; antibody captured by anti-Fc antibody, soluble hK2 injected; 1:1 Langmuir fit.
soluble human kallikrein related peptidase 2 (hK2) protein (human), sequence (P20151 19-261): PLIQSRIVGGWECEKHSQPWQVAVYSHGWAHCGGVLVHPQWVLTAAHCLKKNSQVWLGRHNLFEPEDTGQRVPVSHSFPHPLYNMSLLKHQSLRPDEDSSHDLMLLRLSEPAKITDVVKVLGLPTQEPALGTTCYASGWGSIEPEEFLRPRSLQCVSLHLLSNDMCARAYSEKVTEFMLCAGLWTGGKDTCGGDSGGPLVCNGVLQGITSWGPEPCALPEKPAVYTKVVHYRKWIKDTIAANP

B1: KL2B413 (scFv-LH-Fc) (Fc fusion, part only; not given: Fc part, part only)
scFv, part: EIVLTQSPSFLSASVGDRVTITCRASQGISSYLSWYQQKPGKAPKLLIYATSTLQSGVPSRFSGSGSGTEFTLTISSLQPEDFATYYCQQLNSYPRTFGQGTKVEIKGGSEGKSSGSGSESKSTGGSEVQLVESGGGLVQPGGSLRLSCAASGFTFSSYWMTWVRQAPGKGLEWVANIKQDGSERYYVDSVKGRFTISRDNAKNSLYLQMNSLRAEDTAVYYCARDQNYDILTGHYGMDVWGQGTTVTVSS
As usually defined, the Kd is a measure of binding affinity in units of concentration. Low readings indicate a tighter complex, high ones a looser complex. In turn, B1 registered a Kd of 34.3 nM.

B2: KL2B359 (scFv-LH-Fc) (Fc fusion, part only; not given: Fc part, part only)
scFv, part: EIVLTQSPATLSLSPGERATLSCRASESVEYFGTSLMHWYQQKPGQPPRLLIYAASNVESGIPARFSGSGSGTDFTLTISSVEPEDFAVYFCQQTRKVPYTFGGGTKVEIKGGSEGKSSGSGSESKSTGGSQVQLQESGPGLVKPSQTLSLTCTVSGNSITSDYAWNWIRQFPGKRLEWIGYISYSGSTTYNPSLKSRVTISRDTSKNQFSLKLSSVTAADTAVYYCATGYYYGSGFWGQGTLVTVSS
Regarding B2, the dissociation constant (Kd) was in the range of 0.7 to 1 nM.
